{
  "source": "patent US20050100540A1",
  "about": "“Platelet-activating factor acetylhydrolase” (priority 1993, published 2005)",
  "molecules": {"B1": {"name": "PAF-AH: Recombinant human plasma platelet-activating factor acetylhydrolase (beginning at Ile42) expressed in E. coli from construct pUC trp AH (protein)", "chain": "IQVLMAAASFGQTKIPRGNGPYSVGCTDLMFDHTNKGTFLRLYYPSQDNDRLDTLWIPNKEYFWGLSKFLGTHWLMGNILRLLFGSMTTPANWNSPLRPGEKYPLVVFSHGLGAFRTLYSAIGIDLASHGFIVAAVEHRDRSASATYYFKDQSAAEIGDKSWLYLRTLKQEEETHIRNEQVRQRAKECSQALSLILDIDHGKPVKNALDLKFDMEQLKDSIDREKIAVIGHSFGGATVIQTLSEDQRFRCGIALDAWMFPLGDEVYSRIPQPLFFINSEYFQYPANIIKMKKCYSPDKERKMITIRGSVHQNFADFTFATGKIIGHMLKLKGDIDSNVAIDLSNKASLAFLQKHLGLHKDFDQWDCLIEGDDENLIPGTNINTTNQHIMLQNSSGIEKYN"}},
  "key": {"[1]": {"assay": "Hydrolysis of long-chain sn-2 phospholipid by recombinant PAF-AH", "assay_type": "biochemical", "conditions": "incubated with recombinant PAF-AH", "description": "The most remarkable property of the PAF acetylhydrolase is its marked specificity for substrates with a short residue at the sn-2 position of the substrate. This strict specificity distinguishes PAF acetylhydrolase from other forms of PLA2. Thus, to determine if recombinant PAF-AH degrades phospholipids with long-chain fatty acids at the sn-2 position, hydrolysis of 1-palmitoyl-2-arachidonoyl-sn-glycero-3-phosphocholine (arachidonoylPC) was assayed since this is the preferred substrate for a well-characterized form of PLA2. […] In additional experiments, arachidonoylPC was included in a standard PAF hydrolysis assay at concentrations ranging from 0 to 125 μM to determine whether it inhibited the hydrolysis of PAF by recombinant PAF-AH. There was no inhibition of PAF hydrolysis even at the highest concentration of […], which was 5-fold greater than the concentration of PAF. […] Native plasma PAF-AH has several other properties that distinguish it from other phospholipases including calcium-independence and resistance to compounds that modify sulfhydryl groups or disrupt disulfides."}, "[2]": {"assay": "Pharmacokinetics of PAF-AH in rat circulation (double mAb capture ELISA)", "assay_type": "in vivo", "conditions": "2000 U IV, mean ±SEM", "description": "Four rats received 2000 U of PAF-AH by IV injection in a 300 μl volume. Plasma was collected at various time points and stored at 4° C. and plasma concentrations of PAF-AH were determined by ELISA using a double mAb capture assay. In brief, monoclonal antibody 90G11D (Example 13) was diluted in 50 mM carbonate buffer pH 9.6 at 100 ng/ml and immobilized on Immulon 4 ELISA plates overnight at 4° C. After extensive washing with PBS containing 0.05/Tween 20, the plates were blocked for 1 hour at room temperature with 0.5% fish skin gelatin (Sigma) diluted in PBS. Serum samples diluted in PBS with 15 mM CHAPS were added in duplicate to the washed ELISA plate and incubated for 1 hour at room temperature. After washing, a biotin conjugate of monoclonal antibody 90F2D (Example 13) was added to the wells at a concentration of 5 μg/ml diluted in PBS and incubated for 1 hour at room temperature. After washing, 50 μl of a 1:1000 dilution of ExtraAvidin (Sigma) was added to the wells and incubated for 1 hour at room temperature. After washing, wells were developed using OPD as a substrate and quantitated. Enzyme activity was then calculated from a standard curve. […]"}, "PAF-induced NEC": {"system": "PAF-induced NEC", "assay": "PAF-induced necrotizing enterocolitis (NEC) model"}, "PAF-induced foot edema": {"system": "PAF-induced foot edema", "assay": "PAF-induced rat foot edema model", "assay_type": "in vivo", "description": "Six to eight-week-old female Long Evans rats (Charles River, Wilmington, Mass.), weighing 180-200 grams, were used for all experiments. Prior to experimental manipulations, animals were anesthetized with a mixture of the anesthetics Ketaset (Fort Dodge laboratories, Fort Dodge, Iowa), Rompun (Miles, Shawnee Mission, Kans.), and Ace Promazine (Aveco, Fort Dodge, Iowa) administered subcutaneously at approximately 2.5 mg Ketaset, 1.6 mg Rompun, 0.2 mg Ace Promazine per animal per dose. Edema was induced in the foot by administration of either PAF or zymosan as follows. PAF (Sigma #P-1402) was freshly prepared for each experiment from a 19.1 mM stock solution stored in chloroform/methanol (9:1) at −20° C. Required volumes were dried down under N2, diluted 1:1000 in a buffer containing 150 mM NaCl, […] Tris pH 7.5, and 0.25% BSA, and sonicated for five minutes. Animals received 50 μl PAF (final dose of 0.96 nmoles) subcutaneously between the hind foot pads, and edema was assessed after 1 hour and again after 2 hours in some experiments. Zymosan A (Sigma #A-8800) was freshly prepared for each experiment as a suspension of 10 mg/ml in PBS. Animals received 50 μl of zymosan (final dose of 500 μg) subcutaneously between the hind foot pads and edema was assessed after 2 hours.\nEdema was quantitated by measuring the foot volume immediately prior to administration of PAF or zymosan and at indicated time point post-challenge with PAF or zymosan. Edema is expressed as the increase in foot volume in milliliters. Volume displacement measurements were made on anesthetized animals using a plethysmometer (UGO Basile, model #7150) which measures the displaced water volume of the immersed foot. […] Repeated measurements of the same foot using this technique indicate the precision to be within 5%.\nPAF-AH was injected locally between the foot pads, or systematically by IV injection in the tail vein. For local administration rats received 100 μl PAF-AH (4000-6000 U/ml) delivered subcutaneously between the right hind foot pads. Left feet served as controls by administration of 100 μl carrier (buffered salt solution). For systemic administration of PAF-AH, rats received the indicated units of PAF-AH in 300 μL of carrier administered IV in the tail vein. Controls received the appropriate volume of carrier IV in the tail vein.\nRats (N=4) were injected with 100 μl of PAF-AH (4000-6000 U/ml) subcutaneously between the right foot pads. Left feet were injected with 100 μl carrier (buffered salt solution). Four other rats were injected only with carrier. All rats were immediately challenged with PAF via subcutaneous foot injection and foot volumes assessed 1 hour post-challenge. FIG. 4, wherein edema is expressed as average increase in foot volume (ml)±SEM for each treatment group, illustrates that PAF-induced foot edema is blocked by local administration of PAF-AH.\nRats (N=4 per group) were pretreated IV with either PAF-AH (2000 U in 300 μl carrier) or carrier alone, 15 minutes prior to PAF challenge. Edema was assessed 1 and 2 hours after PAF challenge. FIG. 5, wherein edema is expressed as average increase in volume (ml)±SEM for each treatment group, illustrates that IV administration of PAF-AH blocked PAF induced foot edema at one and two hours post challenge. […] Mean volume increase for the PAF-AH treated group at two hours was 0.10 ml±0.08 (SEM), versus 0.56 ml±0.11 for carrier treated controls.\nRats (N=4 per group) were pretreated IV with either PAF-AH (2000 U in 300 μl carrier) or carrier alone. Fifteen minutes after pretreatment, groups received either PAF or zymosan A, and foot volume was assessed after 1 and 2 hours, respectively.\nIn two separate experiments, groups of rats (N=3 to 4 per group) were pretreated IV with either serial dilutions of PAF-AH or carrier control in a 300 μl volume, 15 minutes prior to PAF challenge. Both feet were challenged with PAF (as described above) and edema was assessed after 1 hour. […]"}},
  "note": "Entries after “also recorded” stand apart in the source; their conditions may differ.",
  "data": [
    {"molecule": "B1", "values": [
      {"measurement": "Hydrolysis of arachidonoylPC", "setting": "[1]", "result": "not hydrolyzed"},
      {"measurement": "Plasma enzyme level at one hour", "setting": "[2]", "result": 374, "unit": "U/ml"},
      {"measurement": "Animals that developed NEC, PAF challenge at 24 and 48 hours after injection", "setting": "PAF-induced NEC; 8,500 units IV once", "result": 100, "unit": "%"},
      {"measurement": "NEC development, PAF challenge within first eight hours after injection", "setting": "PAF-induced NEC; 8,500 units IV once", "result": "none of the rats developed NEC"},
      {"measurement": "Gross findings of bowel, PAF-AH in the absence of PAF", "setting": "PAF-induced NEC; 25,500 units IV, no PAF", "result": "no effect on the gross findings"},
      {"measurement": "NEC development, enzyme 15 minutes after PAF", "setting": "PAF-induced NEC; 25,500 units into vena cava", "result": "all animals developed NEC"},
      {"measurement": "NEC development, enzyme two minutes following PAF", "setting": "PAF-induced NEC; 25,500 units into vena cava, PAF 0.4 μg", "result": "None of the animals developed NEC"},
      {"measurement": "NEC development after PAF", "setting": "PAF-induced NEC; 25,500 units via tail vein 15 minutes prior to PAF", "result": "the bowel appeared to be normal; also recorded: completely protected"},
      {"measurement": "Lowest protective amount of enzyme", "setting": "PAF-induced NEC; IV 15 minutes prior to PAF 0.4 μg", "result": 2040, "unit": "units"},
      {"measurement": "NEC development (gross findings)", "setting": "PAF-induced NEC; less than 2,000 units of the enzyme", "result": "developed NEC"},
      {"measurement": "Mean increase in volume", "setting": "PAF-induced foot edema; 2000 U IV 15 minutes prior to PAF, after 1 hour, ±SEM", "result": "0.08 ± 0.02", "unit": "mL"},
      {"measurement": "Mean volume increase", "setting": "PAF-induced foot edema; 2000 U IV 15 minutes prior to PAF, at two hours, ±SEM", "result": 0.10, "unit": "mL"},
      {"measurement": "IV dose range found to dramatically reduce PAF mediated inflammation", "setting": "PAF-induced foot edema; IV injections", "result": "160-2000 U/rat"},
      {"measurement": "ID50 dosage", "setting": "PAF-induced foot edema; IV, summary of dosing studies", "result": "40-80 U/rat"},
      {"measurement": "PAF-induced edema compared with PAF antagonists", "setting": "PAF-induced foot edema; PAF-AH 2000 U IV vs CV3988 or Alprazolam 2 mg IP", "result": "reduction in PAF-induced edema beyond that afforded by the established PAF antagonists CV3988 and Alprazolam"},
      {"measurement": "Plasma concentration predicted to block PAF-elicited edema", "setting": "PAF-induced foot edema; calculated from plasma volume for 180-200 gram rats", "result": "25-40 U/ml"},
      {"measurement": "Increase in foot volume", "setting": "PAF-induced foot edema; local s.c. 100 μl PAF-AH (4000-6000 U/ml), 1 hour post PAF challenge, ±SEM", "result": 0.08, "unit": "mL"},
      {"measurement": "Duration of protection from PAF induced edema", "setting": "PAF-induced foot edema; single 2000 U IV dose", "result": "at least 24 hours"}
    ]}
  ]
}
